Reference: patent publication EP1500662A2 (CORNELL RESEARCH FOUNDATION, INC., dated 2005)
Residue numbers refer to the chain shown, from its start. In names and notes the source's numbering stands.

B1: C52F peptide (peptide)
peptide: NHTTWMEWDREINNYTSLIHSLIEESQNLQEKNEQELLELDKWASLWNWFNIKIK
B2: C52L peptide (peptide)
peptide: B1 peptide with I23F, N33A, L38F

Experiments:
Experiment in all cases: cell-based or functional assay
[1] = target: envelope glycoprotein of HIV-1 DJ258 (HIV-1 DJ258)
[2] = target: envelope glycoprotein of HIV-1 NL4-3 (HIV-1 NL4-3)
[3] = target: envelope glycoprotein of HIV-1 Case C 7/86 (HIV-1 Case C 7/86)
[4] = target: envelope glycoprotein of HIV-1 94ZW103 (HIV-1 94ZW103)
[5] = target: envelope glycoprotein of HIV-1 UG270 (HIV-1 UG270)
[6] = target: envelope glycoprotein of HIV-1 CM.235 (HIV-1 CM.235)
[7] = target: envelope glycoprotein of HIV-1 BZ162 (HIV-1 BZ162)
[8] = target: envelope glycoprotein of HIV-1 JFRL (HIV-1 JFRL)

Binder | IC50 (nM), Human PBMC Infectivity Assays [1] [nM] | IC50 (nM), Human PBMC Infectivity Assays [2] [nM] | IC50 (nM), Human PBMC Infectivity Assays [3] [nM] | IC50 (nM), Human PBMC Infectivity Assays [4] [nM] | IC50 (nM), Human PBMC Infectivity Assays [5] [nM] | IC50 (nM), Human PBMC Infectivity Assays [6] [nM] | IC50 (nM), Human PBMC Infectivity Assays [7] [nM] | IC50 (nM), Human PBMC Infectivity Assays [8] [nM]
B1 | 9 | 23 | 49 | 4 | 68 | 11 | 2 | 5
B2 | 11 | 20 | 17 | 3 | 61 |  | 3 | 6
